Measurements taken from a protein production outcome set (Wang et al. 2014).

Assay: label from the status in PepcDB records

MAANVSGAKSCPANFLAAADDKLSGFQGDFLWPILVVEFLVAVASNGLALYRFSIRKQRPWHPAVVFSVQLAVSDLLCALTLPPLAAYLYPPKHWRYGEAACRLERFLFTCNLLGSVIFITCISLNRYLGIVHPFFARSHLRPKHAWAVSAAGWVLAALLAMPTLSFSHLKRPQQGAGNCSVARPEACIKCLGTADHGLAAYRAYSLVLAGLGCGLPLLLTLAAYGALGRAVLRSPGMTVAEKLRVAALVASGVALYASSYVPYHIMRVLNVDARRRWSTRCPSFADIAQATAALELGPYVGYQVMRGLMPLAFCVHPLLYMAAVPSLGCCCRHCPGYRDSWNPEDAKSTGQALPLNATAAPKPSEPQSRELSQ
protein production: failed

MIAQQFNRARHILRHNLVRPFYQPKFYLESGKLAGFEALLRWYDEDNQIQLPKLIINAFEDYSLASRLSEKMQLNIFKDMASWINQGLQLVPVSINAAPVEFLKDNYAELLLERLNQFEIPYHLIEIEITEHLLDDQGKNFISRALAKLKQNGIRIALDDFGTGHSSLTRLANLPVDCLKIDCDFVQRMEQEKFISALVQSVILMSNNLGIDVVAEGIESQEQLELLKQQGCEVGQGFLFSQALAPENARALLS
protein production: failed

MMGSVLPAEALVLKTGLKAPGLALAEVITSDILHSFLYGRWRNVLGEQLFEDKSHHASPKTAFTAEVLAQSFSGEVQKLSSLVLPAEVIIAQSSIPGEGLGIFSKTWIKAGTEMGPFTGRVIAPEHVDICKNNNLMWEVFNEDGTVRYFIDASQEDHRSWMTYIKCARNEQEQNLEVVQIGTSIFYKAIEMIPPDQELLVWYGNSHNTFLGIPGVPGLEEDQKKNKHEDFHPADSAAGPAGRMRCVICHRGFNSRSNLRSHMRIHTLDKPFVCRFCNRRFSQSSTLRNHVRLHTGERPYKCQVCQSAYSQLAGLRAHQKSARHRPPSTALQAHSPALPAPHAHAPALAAAAAAAAAAAAHHLPAMVL
protein production: failed

MRLEKFIHLLGERGFDGALISPGTNLYYLTGLRLHEVGERLAILAVSAEGDYRFLAPSLYENVVNNFPATFWHDGENPYAKLREILEELGISKGRILIEDTMRADWLIGIMKLGKFTFQPLSSLIKELRMIKDKEEVKMMEHASRIADKVFEEILTWDLIGMKERELALKIELLIRELSDGIAFEPIVASGENAANPHHEPGERKIRKGDIIILDYGARWKGYCSDITRTIGLGELDERLVKIYEVVKDAQESAFKAVREGIKAKDVDSRAREVISKAGYGEYFIHRTGHGLGLDVHEEPYIGPDGEVILKNGMTFTIEPGIYVPGLGGVRIEDDIVVDEGKGRRLTKAERELIIL
protein production: not failed

MSGIEAKNLWHRLNNLALVRFLLLVAAGWAIVQLLAYFETVIIIFTFAAILAFLLSYPVQWLRRFLPHSVAVVVVFLISIVILGGLLITVGVALLSQGQQLIDSISAFLTSLLPFLERIERLLSNRNLQIDLSVIQEQLRTQAVSTLVTSLAIVQQFLTNFVTFILIAVVAFFMLLDGEKLWNFILKIVPQKRRIRFTNIMRRSFLGFFRGQLLLCLFLTSSTFIIFLLLQVPFALILSVIVGILDIIPGIGATLGVGTITLIVLSQDVWLALKVLAACVVLQQIQDNLISPRIMQGSLNLNPVVVFFALLVGARVAGLLGVFISIPITGVIVSLFEIDEMKSEV
protein production: failed

SHMEIVPDTSVVIDGRVSDQVKADADPDTDVDGMGFAGATVVVPEAVVGELEAQANDGRETGWEGLEELQTLVDLAEEGTIDVEYVGRRPDAIEKREAGEGQIDALIRDIAGDRDATLVTSDDVQAEVARAKGLAVEFVDPVKRTVDRLQI
protein production: not failed

MSYLSQAPLYSSIPRKNCPIAWEGQFTRGDKGTSTISFEAVASHDLWIWHTFFGCASTLNDINFLDRSPVFDDIEQGNTPRVNFFVYQRQYNMAYYLADGIYPSYPTFVKSIRLPQSEPDKLFVQLQEGCRKDIERAFGVLHARFKIIWNIADLAIIMRSCIILHNMIVENERDTYAQHWTDYDQSKESGSSTPQPFSTEVLHAFANHVHARSKLRDSICTS
protein production: not failed

MSAIDCIITAAGLSSRMGQWKMMLPWQQGTILDTSIKNALQFCSRIILVTGYRGNELHERYVNQSNITIIHNPDYAQGLLTSVKAAVPAVQTEHCFLTHGDMPTLTIDIFRKIWSLRNDGAILPLHNGIPGHPILVSKPCLMQAIKRPNITNMRQALLMGAHYSVEVENAEIILDIDTPDDFITVQKRYTKI
protein production: failed

MIRLAAIDVDGTLTDRDRLISTKAIESIRSAEKKGLTVSLLSGNVIPVVYALKIFLGINGPVFGENGGIMFDNDGSIKKFFSNEGTNKFLEEMSKRTSMRSILTNRWREASTGFDIDPEDVDYVRKEAESRGFVIFYSGYSWHLMNRGEDKAFAVNKLKEMYSLEYDEILVIGDSNNDMPMFQLPVRKACPANATDNIKAVSDFVSDYSYGEEIGQIFKHFELM
protein production: not failed

MMRQPRARTMTMRDDIRDLPANDDRMTRFLGGSPMAVAFRLILMSILVGVVLAAIGLDPWNIITSIRLLFERIWDLGFDAINGLWRYFLLGAVIVIPIWLLTRLASTPRGR
protein production: failed

MIKRLTISPLFLILSLIAYYLSRNDILLYSTLSTILFWTFIILILPTSFYNYIKDGIVKYCKKKIFWFTVGLYISYHVILYSFFFYLLLPGSIKNISFWFSFNAGIGYSIPPPITYFLEWVSNSPAIWFFIGPYEGDVIPFSTFLGVVLALLIGLNVMKILELWGISNKLSKSIVLIPSLGVVSGSSCCVFLPSIVMYSIALSISSITATILSILSSFAYFILAYYALPIVSAIVLFHNLTMLNRLIKKLSFTM
protein production: failed

PSKKYVVDIWSDFVCPWCWIAKRRFENALNRSGMQDDVQVNVRAYRLAANQAPEPMIGALKRKLGNPASADSMMSTVSKYGRADGLDYRFDTMMFGDTADAHILVKAVEDTAVKKRLVEALYEQSTSHGRSLFDRSSLEAIAREVGVSDESIQLAWSSVELRNEMKDDESFAAQLGSGVPLFVFDSSFSVSGAQPDAVFLEALNKMVANSNPE
protein production: not failed

MTKSELIEQLCSKKPQLSAKQVEDTVKEILEQMATTLEGGDRIEIRGFGSFSLHYREPRLGRNPKTGDKVELDGKFVPHFKPGKELRERVNYS
protein production: failed

MTQSAPEFKVLQSIAFLAVVLQSSLLYTMNQGNVLLEQSLIMGMLFNLAKFSAPAFIFIVGFHLIRHYTKQLVYKEYISEKATHLLIPYFFWSILYLLTTNDLITLQGGIKSLLLGTAAPHLWYVIMMFQIHLLFPLLCTLFYWFQKRTENKKDIYKYMTFFACLYFLLMWFSSHYIFNGEKLTSSTILHYTDRSFLFYSFYFVMGGIAAVPLKTWRLFVMKHIPLITILFFILFLFINYELFSFYGANSIHLTVSTYLKPSMFLYIVCEIIILYVLSIMIVQRRGFLYKTLRFIGNYTYGAYLAHLFFLQLCTKFLSLFTLQENTILYSLLLFVLTAIISISTMVICSTIPFHTWITGPSPTTKMKWTKVVFRKNHKKLFKPYI
protein production: failed

MSLVVCQPQINESFYQKDDMGGLSFLQSMSDITSIAQTKEDKAYVHPMEKRSVSKLNEKSLEMCTESLGTETGSESGDELSLLAFEATTTPRAPPRQLKPQEDTNLPDKTPPMSRNNSFPPPIKFVEDSKYNRMVRWLGEDGRIVVQAIRVSSPPSCFVSERGEGRLRLILTSESSLLSHNHEEEEEEETEEGIDEETSENLEGKSGNKKFSRFSRRCKENGREPKPMLTWKQQQFWVAT
protein production: failed

MDSEGFSPSIYTDKTGHPTIGYGYNLSVYSYEGKRITKTYGLLTDILSYGWYKNLDAMRRMVILDLSYNLGLNGLLKFKQFIKAIEDKNYALAVERLQKSPYFNQVKKERQGIWKF
protein production: failed

MEYVAFSVAVIILLGLLFNRVFTRARLPGILGMLILGILIGPHGLNLISKSIMDISPDLRVIALIIILLRAGFGINLESLRKVGMTAVKMSFIPDVFEGLAVMVASHYILGLPIIEAGILGFVIAAVSPAVIVPQMLSFIERRMGTAKGIPTIILTGASVDDVVSITLFSVFLGIYQGQQVNLLVEAIGVPLSILTGITGGLALGLALVYLFRRFEIRNTEKTLIILGAAILLKNMGDLISTYLPIAALVGVMVVGLVILERMPETGLKLSEKFNKVWIFAEILLFVLVGAQVDVRLIFHVGLLGLAVITAGLMVRSIGVLLSLKGTDLNLKEKVFCISAYIPKATVQAAIGAIPLAAGVAAGETILAMAVLAILFTAPLGSLAVKWTGERFLEVERGN
protein production: failed

MSLNRFTKTSQGRSWNTGNGSPDAICFAVDKPGIVVVGFAVYGGGGIHEYELEVLVDDSEHAGDSTHSHRWTSLELVKGTYTTDDSPSDIAEIRLDKVVPLKENVKYAVRLRNYGSRTANGDGGMTTVQCPDGVTFTFSTCSLSSNGTNQTRGQIPQILYYRSEEGHHHHHH
protein production: not failed

MMINRINLTDIRSFVLIARLGNFTKAAETLDVSRSHVSRQISSLEKQMGVTLLIRTTRTLRLTEAGKHFYHQCEQALHTIDQALLSAVDDVEKVQGEIKINCVGGYLGEVFLADIVNTFMQQYPDVSISLDFSSNRVDLIEEEFDIAFRMGSLEDSGFVAKKLLDIEMGTLASPKYLQQYGRPSHPKELQQHHCLTGSVRKWHFQSLVNKEHYDVSIKGNLQCKNGRVLVAGAIAGNGIIRVPLIYCQQELDDKKLVQVFEEWGIPTVDFSAIYHRDRYQPKRIRTFIDFVKQYSDSLFT
protein production: failed

MAGRRRWSTEQILDAAAELLLAGDAETFSVRKLAASLGTDSSSLYRHFRNKTELLRAVADRILLSAMDGYRPEGDWKQRLTAVALRLRESFGQQPQLAAVWGRHGSGGTGSRLMMEEVLQALRASGLPDDEIPARYHRLVILISSLITAEGGFGAVGAQEHEQGMEQFRVAVLGADPERFPALSHFAREIRPLGADRGAAFEEILAAHLAHLEAAAP
protein production: not failed

MTPNEIAAKLSGLATKYHIRDVTLLAGRLLMSFIFLHEGVTLATHFDGAARAMAALGVGLPLFVATIALQLGAGLSVASGLLTRLGGIGLGLFCLATALLFHTNFASQNELLHFEKDLAISGGMFVLAAVGAGRFSLDWLLAGYLQKRQRDKEMARALLAVENQFSVDVQLPV
protein production: failed

MTATASTVLPARALLLDMDGTLVNSDAAVDRVWRRWADRHGLDGDEVMKVVHGRQGYASMALLLPDRPMEHNHADNARMLAEETADTEGVVAIPGAAEFLASLRGLPHALVTSADVALSTARMAAAGLAQPDVRVTAESVGASKPDPEGFLKGAAELGIAPADCVVFEDSGAGIAAGRAAGMRVVGVGPRAGFHGPDVVVEDLTRVRVEADADGGLRLHIG
protein production: failed

MSHLYDPTTQYYTGEYPKQKQPAPGVQAKMTPVPDCGEKSYVGSGRLKDRKALVTGGDSGIGRAAAIAYAREGADVAINYLPAEEEDAQQVKALIEECGRKAVLLPGDLSDESFARSLVHKAREALGGLDILALVAGKQTAIPEIKDLTSEQFQQTFAVNVFALFWITQEAIPLLPKGASIITTSSIQAYQPSPHLLDYAATKAAILNYSRGLAKQVAEKGIRVNIVAPGPIWTALQISGGQTQDKIPQFGQQTPMKRAGQPAELAPVYVYLASQESSYVTAEVHGVCGGEHLG
protein production: not failed

MCGIVGANSTRNVTNILIEGLKKLEYRGYDSAGLAIIDDKNNIDICKEVGKVIELEKSVHNLANFKGDIGIAHTRWATHGKPSKNNSHPHASESFCIVHNGVIENFAELKKVLINDGYKFKSDTDTEVIAHLLQKEWRDNFSIVDNIKYIMAMLKGAYAVAIISQKFSDKIVAVRSGSPLVIGVGIDENFISSDALSLLPVTNKFSYLDEGDIAIISKDNVEVFDNNGAAKNLEVEEYNYSSSSASKDGYKHYMLKEIYEQPEAVSNTILASLADGEISLDSFDKRAKELFEKTKHICIVACGTSYNAGMTAKYWIEKYAKVPCSVEIASEIRYRDNVVVDGSLFVSISQSGETADTLESLRKSKKQNYVGSMCICNVPNSSLVRESDIAFMTKAGVEIGVASTKAFTTQLVALAIFTLVIAKLKNSLTDQQIAKYTEELKNIRALVMGALKLDTEIDQISEYFSDKEHTIFLGRGLYYPIAIEGALKLKEISYIHAEAYPSGELKHGPLALVDKNMPIVAVVPNDELLDKTLSNLQEVHARGGKLILFVDKAVKERVNFDNSIVLELDAGHDFSAPVVFTIPLQLLSYHVAIIKGTDVDQPRNLAKSVTVE
protein production: not failed
